From US9289490B2, “Combinations and uses thereof” (MORPHOSYS AG, priority 2010, dated 2016)
Values joined by “and” are separate entries in the source; they are usually repeats but may differ in a detail not shown here. Equal values may be shown once. Read-outs that look alike come from different tables or passages of the source. Marks after values point to notes of the source that are not given here.

Key:
AMO-1 cells = test: ADCC with human PBMCs, flow cytometry (CalceinAM/PI); type: cell-based
Experimental: For Tables 3b-c, “Theoretical Combination” represents the addition of the values of MOR202 alone and the values of LEN alone. The normalized data of Table 3b is calculated as follows. Therefore, the specific killing values of Table 3b are calculated by subtracting the values of the controls. Then the specific killing values are compared to the MOR202 group, which is set as 1.
The constant m determines the shape of the dose-effect curve. We used Excel Fit software to carry out a linear regression calculation to estimate the parameters m and D50.
The CI-isobol method provides a quantitative assessment of synergism between drugs. A combination index (CI) is estimated from dose-effect data of single and combined drug treatments. […] Formally, the combination index (CI) of a combined drug treatment is defined as CI=D1/Dx1+D2/Dx2
The data is analysed in the following way: Antagonistic(AB)/C<(A/C)×(B/C) Additive(AB)/C=(A/C)×(B/C) Synergistic(AB)/C>(A/C)×(B/C) where A is the treatment with LEN alone; B is the treatment with MOR202 alone; C is response to the treatment vehicle; AB is combination of treatments A and B.

[1] = test system: NCI-H929 human multiple myeloma cells; test: NCI-H929 bone lysis SCID mouse MM model, MOR202 and LEN (MicroCT); type: in vivo, SCID mice; design: Trabecular Bone Volume (Tb · BV), individual mouse / Trabecular Bone Volume (Tb · BV), Mean: unit not given here
Experimental: 63 SCID mice were inoculated on Day (−7) orthotopically into the right tibia with 2.5×10^6 NCI-H929 MM cells (in 5 μL) in order to induce bone lysis. Lenalidomide (Groups A and D) and Vehicle Control (Group C) treatments started on Day (−1). MOR202 treatments (Groups B and D) started on Day 0. Treatment continued for 6 weeks.
MicroCT Scan was used to assess bone lysis and included […] analysis comprising Total Bone Volume (TBV), Trabecular Bone Volume (Tb.BV), Trabecular Pattern Factor (Tb.Pf) and Structure Model Index (SMI). Table 10 defines each of these parameters.

RAMOS cells [2] = test: RAMOS non-Hodgkin tumor SCID mouse survival model, MOR202 and lenalidomide; type: in vivo, SCID mice
Experimental: Sixty-eight female SCID mice were pre-treated with Cyclophosphamide (75 mg/kg, i.p., twice daily) for two days prior to RAMOS cell inoculation (Day −5 and −4). On the day of inoculation (Day −3), all mice were inoculated with 1×10^6 RAMOS cells each intravenously into the tail vein. Sixty-four of the mice were randomised by body weight into eight groups of eight.
The study continued for 98 days and the measured endpoint was survival.

NCI-H929 MM cells = test: NCI-H929 bone lysis SCID mouse model, MOR202 and BOR (MicroCT); type: in vivo, SCID mice; design: Trabecular Bone Volume (Tb · BV), individual mouse / Trabecular Bone Volume (Tb · BV), Average: unit not given here
Source text: 63 SCID mice were inoculated on Day (−7) intra-tibially with 2.5×10^6 NCI-H929 MM cells in order to induce bone lysis. Bortezomib (Groups A and AB) and Vehicle Control (Group C) treatments started on Day (−1). MOR202 treatments (Groups B and AB) started on Day 0. Treatment continued for 6 weeks.
MicroCT Scan was used to assess bone lysis and included a 3-dimensional analysis comprising Total Bone Volume (TBV), Trabecular Bone Volume (Tb.BV), Trabecular Pattern Factor (Tb.Pf) and Structure Model Index (SMI). Table 10 above defines each of these parameters.

RAMOS cells [3] = details: BOR 0.6 mg/kg i.p., MOR202 1 mg/kg i.v.
Experimental: Fifty-five female SCID mice were pre-treated with Cyclophosphamide (75 mg/kg, i.p., twice daily) for two days prior to RAMOS cell inoculation (Day −5 and −4). On the day of inoculation (Day −3), all fifty-five mice were inoculated with 1×10^6 RAMOS cells each (in 100 μL) intravenously into the tail vein. Forty-eight of the mice were randomised by body weight into six groups of eight.

NCI-H929 cells = test: ADCC with human PBMCs, flow cytometry (CalceinAM/PI); details: LEN 5 μM
Experimental: PBMC's were isolated by density gradient centrifugation of freshly isolated human blood. Isolated blood from different donors were layered on a defined volume of Biocoll (Biochrome AG; CAT No.:L6115; LOT No.:1050T) in a Falcon tube and centrifuged at 380 g. The PBMCs were isolated and supplemented with RPMI medium.
Cell suspensions were further incubated for 4 h at 37° C. To detect dead AMO-1 cells, cell suspensions were challenged with propidium iodide (PI) and subsequently analyzed in flow cytometry. Target cells were separated via gating of CalceinAM positive cell populations, and cells killed via ADCC were quantified.
Single and combination doses of 5 μM LEN and 15 μg/ml of MOR03207 and 0.2 or 0.07 μg/ml MOR202 were used.
Single and combination doses of 5 μM LEN and 15 μg/ml of MOR03207 and 0.2* or 0.07 μg/m MOR202 were used.

[4] = LEN 50 mg/kg p.o. once daily, MOR202 3 mg/kg i.p. 3 times weekly, 6 weeks, lower = less bone lysis, listed as MOR03087
[5] = group mean of 10 mice, LEN 50 mg/kg p.o., MOR202 3 mg/kg i.p., 6 weeks
[6] = Bortezomib 0.6 mg/kg i.p. twice per week, MOR202 3 mg/kg i.p. three times per week, 6 weeks, lower = less bone lysis
[7] = group average of 10 mice, Bortezomib 0.6 mg/kg i.p., MOR202 3 mg/kg i.p., 6 weeks

B1: MOR202: anti-CD38 antibody whose amino acid sequence is provided in FIG. 11; IgG1 (antibody, V domains shown)
VH: QVQLVESGGGLVQPGGSLRLSCAASGFTFSSYYMNWVRQAPGKGLEWVSGISGDPSNTYYADSVKGRFTISRDNSKNTLYLQMNSLRAEDTAVYYCARDLPLVYTGFAYWGQGTLVTVSS
VL: DIELTQPPSVSVAPGQTARISCSGDNLRHYYVYWYQQKPGQAPVLVIYGDSKRPSGIPERFSGSNSGNTATLTISGTQAEDEADYYCQTYTGGASLVFGGGTKLTVLGQ
With B1 the “Normalized specific killing, MOR202 treatment group set as 1 (Table 3b)” value (AMO-1 cells; PBMCs and AMO-1 cells treated with LEN, LEN 10 μM, MOR202 and MOR03207 15 μg/ml, controls subtracted, Exp. 1-3) was 1.0, the “Normalized specific killing, theoretical combination set as 1 (Table 3c)” value (AMO-1 cells; PBMCs and AMO-1 cells treated with LEN, MOR202 0.42 μg/ml, LEN 5 μM, Experiment 1-3) was 0.9 and 0.6 and the “Normalized specific killing, theoretical combination set as 1, AVERAGE (Table 3c)” value (AMO-1 cells; PBMCs and AMO-1 cells treated with LEN, MOR202 0.42 μg/ml, LEN 5 μM, average of 3 experiments) was 0.8. The “Normalized specific killing, MOR202 treatment group set as 1 (Table 4b)” value (AMO-1 cells; only effector cells treated with LEN, LEN 10 μM, MOR202 and MOR03207 15 μg/ml, Exp. 1-3) was 1.0, the “Normalized specific killing, theoretical combination set as 1 (Table 4c)” value (AMO-1 cells; only effector cells treated with LEN, MOR202 0.42 μg/ml, LEN 5 μM, Experiment 1-3) was 0.8 and 1.2 and 0.7 and the “Normalized specific killing, theoretical combination set as 1, AVERAGE (Table 4c)” value (AMO-1 cells; only effector cells treated with LEN, MOR202 0.42 μg/ml, LEN 5 μM, average of 3 experiments) was 0.9. The “Structure Model Index (SMI), individual mouse” value [1, 4] was 2.386 and 1.818 and 2.423 and 2.450 and 1.860 and 2.461 and 2.558 and 2.247 and 2.318 and 2.275, the “Trabecular Pattern Factor (Tb · Pf), individual mouse” value [1, 4] was 27.049 mm^−1 and 15.631 mm^−1 and 27.631 mm^−1 and 27.523 mm^−1 and 17.887 mm^−1 and 21.405 mm^−1 and 26.345 mm^−1 and 20.327 mm^−1 and 25.843 mm^−1 and 22.402 mm^−1 and the “Structure Model Index (SMI), Mean” value [1, 5] was 2.28. For the same molecule, the “Total Bone Volume (TBV), Mean” value [1, 5] was 2.467 mm^3, the “Trabecular Bone Volume (Tb · BV), Mean” value [1, 5] was 0.323 and the “Trabecular Pattern Factor (Tb · Pf), Mean” value [1, 5] was 23.204 mm^−1. The “Structure Model Index (SMI), Mean” value ([1]; group mean of 10 mice, LEN 50 mg/kg p.o., MOR202 3 mg/kg i.p., 6 weeks, listed as MOR03087) was 2.280, the “Reduction of bone lysis compared to vehicle control” value ([1]; non-inoculated tibia = 0%, vehicle = 100% bone lysis, MOR202 alone 12 mg/kg, LEN alone 50 mg/kg, combination 3 mg/kg MOR202 and 50 mg/kg LEN) was “up to 55%” and the “Number of mice alive at study termination (day 98)” value (RAMOS cells [2]; LEN 100 mg/kg (Table 14) p.o., MOR202 1 mg/kg i.v.) was 0/8. For the same molecule, the “Day of death (post-inoculation) Mean” value (RAMOS cells [2]; LEN 100 mg/kg (Table 14) p.o., MOR202 1 mg/kg i.v. twice weekly, study 98 days) was 49.6 days, the “% ILS (based on median death day)” value (RAMOS cells [2]; LEN 100 mg/kg (Table 14) p.o., MOR202 1 mg/kg i.v., vs vehicle control) was 155% and the “Day of death (post-inoculation) Median” value (RAMOS cells [2]; LEN 100 mg/kg (Table 14; Table 13: 50 mg/kg) p.o. once daily, MOR202 1 mg/kg i.v. twice weekly, study 98 days) was 51 days. For the same molecule, the “Structure Model Index (SMI), individual mouse” value (NCI-H929 MM cells; [6]) was 2.546 and 2.079 and 2.296 and 2.429 and 1.871 and 2.193 and 2.368 (2×) and 2.436 and 2.511, the “Trabecular Pattern Factor (Tb · Pf), individual mouse” value (NCI-H929 MM cells; [6]) was 27.363 mm^−1 and 19.479 mm^−1 and 21.858 mm^−1 and 23.814 mm^−1 and 16.347 mm^−1 and 19.748 mm^−1 and 25.212 mm^−1 and 21.276 mm^−1 and 24.031 mm^−1 and 25.056 mm^−1 and the “Structure Model Index (SMI), Average” value (NCI-H929 MM cells; [7]) was 2.31. The “Total Bone Volume (TBV), Average” value (NCI-H929 MM cells; [7]) was 1.988 mm^3, the “Trabecular Bone Volume (Tb · BV), Average” value (NCI-H929 MM cells; [7]) was 0.296 and the “Trabecular Pattern Factor (Tb · Pf), Average” value (NCI-H929 MM cells; [7]) was 22.418 mm^−1. For the same molecule, the “Reduction of bone lysis compared to vehicle control” value (NCI-H929 MM cells; non-inoculated tibia = 0%, vehicle = 100% bone lysis, MOR202 alone 12 mg/kg, BOR alone 0.6 mg/kg, combination 3 mg/kg MOR202 and 0.6 mg/kg BOR) was “up to 55%”, the “Number of mice alive at study termination (day 98)” value (RAMOS cells [3]) was 0/8 and the “Day of death (post-inoculation) Mean” value (RAMOS cells [3]; study 98 days) was 43.6 days. For the same molecule, the “Day of death (post-inoculation) Median” value (RAMOS cells [3]; study 98 days) was 43.5 days, the “% ILS (based on median death day)” value (RAMOS cells [3]; vs vehicle control) was 112% and the “% dead cells (raw data, Table 7a), Exp. 2 and 3” value (NCI-H929 cells; PBMCs and NCI-H929 cells treated with LEN before MOR202, MOR202 0.07 μg/ml, MOR03207 15 μg/ml) was 32.54 % dead cells and 43.08 % dead cells. The “% dead cells (raw data, Table 7a), Exp. 1” value (NCI-H929 cells; PBMCs and NCI-H929 cells treated with LEN before MOR202, MOR202 0.2 μg/ml (*), MOR03207 15 μg/ml) was 30.64* % dead cells, the “Normalized specific killing, fractional product combination set as 1 (Table 7b), Exp. 2 and 3” value (NCI-H929 cells; PBMCs and NCI-H929 cells treated with LEN, MOR202 0.07 μg/ml) was 0.45 and 0.58 and the “Normalized specific killing, fractional product combination set as 1 (Table 7b), Exp. 1” value (NCI-H929 cells; PBMCs and NCI-H929 cells treated with LEN, MOR202 0.2 μg/ml (*)) was 0.42*. For the same molecule, the “Normalized specific killing, AVERAGE (Table 7b)” value (NCI-H929 cells; PBMCs and NCI-H929 cells treated with LEN, MOR202 0.2 or 0.07 μg/ml, average of 3 experiments) was 0.48, the “% dead cells (raw data, Table 8a), Exp. 2 and 3” value (NCI-H929 cells; only effector cells treated with LEN before MOR202, MOR202 0.07 μg/ml, MOR03207 15 μg/ml) was 53.74 % dead cells and 47.00 % dead cells and the “% dead cells (raw data, Table 8a), Exp. 1” value (NCI-H929 cells; only effector cells treated with LEN before MOR202, MOR202 0.2 μg/ml (*), MOR03207 15 μg/ml) was 26.60* % dead cells. The “Normalized specific killing, fractional product combination set as 1 (Table 8b), Exp. 2 and 3” value (NCI-H929 cells; only effector cells treated with LEN, MOR202 0.07 μg/ml) was 0.97 and 0.91, the “Normalized specific killing, fractional product combination set as 1 (Table 8b), Exp. 1” value (NCI-H929 cells; only effector cells treated with LEN, MOR202 0.2 μg/ml (*)) was 1.09* and the “Normalized specific killing, AVERAGE (Table 8b)” value (NCI-H929 cells; only effector cells treated with LEN, MOR202 0.2 or 0.07 μg/ml, average of 3 experiments) was 0.99.
